In this assay the target is recombinant full-length calcium-independent receptor of α-latrotoxin (CIRL) expressed in COS cells (rat).

For one molecule, Kd results are on record in patent US6630345B2 (New York University, dated 2003).

Chain of recombinant full-length calcium-independent receptor of α-latrotoxin (CIRL) expressed in COS cells (rat) (O88917 other isoform, or with tags, fused parts or gaps limits assumed): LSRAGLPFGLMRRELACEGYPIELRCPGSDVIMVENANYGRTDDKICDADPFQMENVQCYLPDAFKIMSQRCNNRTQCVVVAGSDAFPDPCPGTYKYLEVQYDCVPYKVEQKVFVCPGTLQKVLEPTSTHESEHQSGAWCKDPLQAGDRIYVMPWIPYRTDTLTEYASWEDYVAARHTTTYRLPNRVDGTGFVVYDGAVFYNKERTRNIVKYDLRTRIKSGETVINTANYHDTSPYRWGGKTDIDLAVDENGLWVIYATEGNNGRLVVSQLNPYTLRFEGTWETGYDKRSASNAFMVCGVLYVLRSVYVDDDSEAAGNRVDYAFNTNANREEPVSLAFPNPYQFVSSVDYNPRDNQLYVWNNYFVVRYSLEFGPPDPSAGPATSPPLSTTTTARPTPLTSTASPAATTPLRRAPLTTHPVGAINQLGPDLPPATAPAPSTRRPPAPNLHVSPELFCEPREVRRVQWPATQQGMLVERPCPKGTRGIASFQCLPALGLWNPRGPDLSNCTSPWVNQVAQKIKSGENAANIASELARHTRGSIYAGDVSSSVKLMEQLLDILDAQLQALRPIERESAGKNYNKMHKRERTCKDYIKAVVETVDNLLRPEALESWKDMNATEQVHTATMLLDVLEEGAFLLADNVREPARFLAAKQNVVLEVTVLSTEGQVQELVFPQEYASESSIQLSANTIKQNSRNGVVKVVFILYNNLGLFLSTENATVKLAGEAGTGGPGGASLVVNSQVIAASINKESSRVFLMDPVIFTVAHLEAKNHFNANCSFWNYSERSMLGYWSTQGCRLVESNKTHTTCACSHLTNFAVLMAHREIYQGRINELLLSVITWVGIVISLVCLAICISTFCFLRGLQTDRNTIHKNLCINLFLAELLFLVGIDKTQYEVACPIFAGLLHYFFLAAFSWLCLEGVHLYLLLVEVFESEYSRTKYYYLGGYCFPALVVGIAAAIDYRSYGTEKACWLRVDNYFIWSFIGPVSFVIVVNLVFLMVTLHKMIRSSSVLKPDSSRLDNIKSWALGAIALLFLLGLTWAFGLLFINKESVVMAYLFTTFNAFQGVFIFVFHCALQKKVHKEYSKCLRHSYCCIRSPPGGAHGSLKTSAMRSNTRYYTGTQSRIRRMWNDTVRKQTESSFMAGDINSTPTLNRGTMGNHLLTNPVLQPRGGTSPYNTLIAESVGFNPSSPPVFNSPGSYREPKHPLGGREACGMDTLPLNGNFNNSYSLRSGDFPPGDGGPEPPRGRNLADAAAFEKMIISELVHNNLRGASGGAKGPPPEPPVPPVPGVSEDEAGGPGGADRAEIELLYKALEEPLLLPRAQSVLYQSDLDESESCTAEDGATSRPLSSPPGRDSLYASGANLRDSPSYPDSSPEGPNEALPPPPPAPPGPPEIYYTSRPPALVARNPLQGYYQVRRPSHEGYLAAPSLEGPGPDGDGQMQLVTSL

B1: α-latrotoxin (ligand)
chain: EGEDLTLEEKAEICSELELQQKYVDIASNIIGDLSSLPIAGKIAGTIAAAAMTATHVASGRLDIEQTLLGCSDLPFDQIKEVLENRFNEIDRKLDSHSAALEEITKLVEKSISVVEKTRKQMNKRFDEVMKSIQDAKVSPIISKINNFARYFDTEKERIRGLKLNDYILKLEEPNGILLHFKESRTPTDDSLQAPLFSIIEEGYAVPKSIDDELAFKVLYALLYGTQTYVSVMFFLLEQYSFLANHYYEKGYLEKYDEYFNSLNNVFLDFKSSLVGTGTSNNEGLLDRVLQVLMTVKNSEFLGLEKNGVDEMLNEKINLFNKIKEEIEGKQKMTLSETPENFAQISFDKDITTPIGDWRDGREVRYAVQYASETLFSKISHWSDPVSVREKACPTLRMPVDQTRRNVLVFRKFDSSKPQLVGEITPYLSNFIDIDRDLYNAASNPDSAVGFKEFTKLNYDGANIRATFDHGRTVFHAAAKSGNDKIMFGLTFLAKSTELNQPDKKGYTPIHVAADSGNAGIVNLLIQRGVSINSKTYHFLQTPLHLAAQRGFVTTFQRLMESPEININERDKDGFTPLHYAIRGGERILEAFLNQISIDVNAKSNTGLTPFHLAIIKNDWPVASTLLGSKKVDINAVDENNITALHYAAILGYLETTKQLINLKEINANVVSSPGLLSALHYAILYKHDDVASFLMRSSNVNVNLKALGGITPLHLAVIQGRKQILSLMFDIGVNIEQKTDEKYTPLHLAAMSKYPELIQILLDQGSNFEAKTNSGATPLHLATFKGKSQAALILLNNEVNWRDTDENGQMPIHGAAMTGLLDVAQAIISIDATVVDIEDKNSDTPLNLAAQNSHIDVIKYFIDQGADINTRNKKGLAPLLAFSKKGNLDMVKYLFDKNANVYIADNDGMNFFYYAVQNGHLNIVKYAMSEKDKFEWSNTDNNRRDECPNEECAISHFAVCDAVQFDRIEIVKYFVGTLGNFAICGPLHQAARYGHLDIVKYLVEEEFLSVDGSKTDTPLCYASENGHFTVVQYLVSNGAKVNHDCGNGMTAIDKAITKNHLQVVQFLAANGVDFRRKNSRGTTPFLTAVAENALHIAEYLIREKRQDININEQNVDKDTALHLAVYYKNLQMIKLLIKYGIDVTIRNAYDKTALDIAIDAKFSNIVEYLKTKSGKFRR
modifications: radioactively labeled with 125I by chloramine T procedure in the binding and immunoprecipitation assays; coupled to Sepharose in the affinity experiments
For the molecule B1, the Kd is 0.16 nM.

As a reminder, the Kd is the equilibrium constant for the complex coming apart.
